Consider seven molecules from US20230416330A1, “Optimized GIP Peptide Analogues” (Antag Therapeutics ApS, priority 2019, published 2023).

Starred links: 1 amine or outer side, 2 acyl side, 3 side chain; linkers in the order of their positions; H or OH if unused. Non-standard residues stand in square brackets, D forms with d. Residues, ends and D or L forms follow the SMILES beside them. Groups on a side chain read outwards from the residue. No end group written: not given here. *: point of attachment. C18 diacid = O=C(O)CCCCCCCCCCCCCCCCC(=O)*; C16 diacid = O=C(O)CCCCCCCCCCCCCCC(=O)*; γGlu = O=C(O)[C@H](CCC(=O)[*:2])N[*:1]; Glutaryl = O=C(CCCC(=O)[*:2])[*:1]; Nle = CCCC[C@H](N)C(=O)O; AEEA = NCCOCCOCC(=O)O; Aib = CC(C)(N)C(=O)O

Test [1] addresses T1, human GIP receptor (Homo sapiens, UniProt P48546).
T1 construct: host or cells: HEK-293 cells, transient transfection (Lipofectamine 2000), cDNA in pCMV-Script vector
T1 sequence (P48546 22-466): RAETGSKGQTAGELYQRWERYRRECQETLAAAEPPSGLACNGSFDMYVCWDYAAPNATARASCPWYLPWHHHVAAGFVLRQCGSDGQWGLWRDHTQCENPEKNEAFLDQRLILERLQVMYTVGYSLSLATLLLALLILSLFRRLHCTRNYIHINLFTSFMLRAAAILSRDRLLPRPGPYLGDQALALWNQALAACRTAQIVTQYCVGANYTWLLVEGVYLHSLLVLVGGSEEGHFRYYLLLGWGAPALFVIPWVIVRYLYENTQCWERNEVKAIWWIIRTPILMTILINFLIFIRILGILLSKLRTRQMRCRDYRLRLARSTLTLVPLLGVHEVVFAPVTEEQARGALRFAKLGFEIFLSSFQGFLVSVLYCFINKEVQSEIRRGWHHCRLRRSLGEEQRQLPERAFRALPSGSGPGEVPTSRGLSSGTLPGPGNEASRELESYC
The test is described as follows: cAMP assay Alternative 1 (CisBio assay), GIPR antagonism. It is filed as cell-based. As to conditions: Table 2B; % inhibition of Emax. How it is done: HEK293 cells were cultured in 10% CO2 and 37° C. in Dulbecco's modified Eagle's medium supplemented with 10% fetal bovine serum, 2 mM glutamine, 180 units/ml penicillin, and 45 µg/ml streptomycin. Transient transfection with hGIPR for the CisBio assay from Table 2C was performed by using Lipofectamine 2000.
The in vitro functional activity of compounds towards human GIP receptor can also be determined in HEK-293 cells transiently expressing the receptor. On the day of the assay, cells were resuspended in HBSS buffer (Gibco, 14025-50) supplemented with […] (Gibco, 15630-106), 0.1% Pluronic F-68 (Gibco, 24040-032) and 0.1% casein (Sigma, C4765), and plated in 384-well plates at a density of 5000 cells/well. The GIP peptide analogues of the present disclosure were diluted in HBSS buffer supplemented with 20 mM HEPES, 0.1% pluronic, 0.1% casein and 500 uM IBMX. […] The resulting decrease in intracellular cAMP was quantitatively determined using the CisBio cAMP Dynamic 2 HTRF Assay Kit. The assay is based on a competition between native cAMP produced by cells and cAMP labeled with the dye d2 for binding to a cryptate labeled antibody. The specific signal (i.e. energy transfer signal) is inversely proportional to the concentration of cAMP in the sample.
The cAMP-d2 conjugate and the antibody anti-cAMP-Cryptate, both diluted in lysis buffer provided in the kit, were added to the cells according to the manufacturer's protocol. The resulting competitive assay was incubated for 60 minutes at room temperature, and the signal was detected by using a PerkinElmer Envision® instrument with excitation at 320 nm and emission at 665 nm and 620 nm. The HTRF ratio (emission at 665 nm/620 nm*10,000) is inversely proportional to the amount of cAMP present and is converted to nM cAMP per well using a cAMP standard curve. The dose-response curves were fitted using the non-linear regression analysis (four-logistic parameter equation) in GraphPad Prism, whereby pIC50 values were estimated. To test for agonistic properties at the GIP receptor, compounds were diluted and added to cells as described above and incubated for 30 min at 37° C. The resulting increase in intracellular cAMP was determined using the CisBio cAMP Dynamic 2 HTRF Assay Kit as described above.
The dose-response curves were fitted using the non-linear regression analysis (four-logistic parameter equation) in GraphPad Prism, whereby pIC50 values were estimated.
On the technique in general: Changes in cAMP serve as a functional read-out for many G protein-coupled receptors.

The target of test [2] is T2, human GIP receptor (human, UniProt P48546 22-466).
T2 sequence (looked up): T1 sequence (P48546 22-466)
The test is described as follows: cell-based or functional assay.

In the case of `CCCC[C@H](NC(=O)[C@H](C)NC(=O)[C@@H](NC(=O)[C@H](CO)NC(=O)[C@H](Cc1ccc(O)cc1)NC(=O)[C@H](CC(=O)O)NC(=O)[C@H](CO)NC(=O)[C@@H](NC(=O)[C@H](Cc1ccccc1)NC(=O)[C@@H](NC(=O)CNC(=O)CCCC(=O)O)[C@@H](C)O)[C@@H](C)CC)[C@@H](C)CC)C(=O)N[C@@H](CC(=O)O)C(=O)N[C@@H](CCCCN)C(=O)N[C@H](C(=O)N[C@@H](CCCCNC(=O)CCCCCCCCCCCCCCC(=O)O)C(=O)N[C@@H](CCC(N)=O)C(=O)N[C@@H](CCC(N)=O)C(=O)N[C@@H](CC(=O)O)C(=O)N[C@@H](Cc1ccccc1)C(=O)N[C@H](C(=O)N[C@@H](CCC(=O)O)C(=O)N[C@@H](Cc1c[nH]c2ccccc12)C(=O)N[C@@H](CC(C)C)C(=O)N[C@@H](CC(C)C)C(=O)N[C@@H](C)C(=O)N[C@@H](CCC(N)=O)C(=O)N[C@@H](CCCCN)C(=O)N1CCC[C@H]1C(=O)N[C@@H](CO)C(=O)N[C@@H](CO)C(=O)NCC(=O)N[C@@H](C)C(=O)N1CCC[C@H]1C(=O)N1CCC[C@H]1C(=O)N1CCC[C@H]1C(=O)N[C@@H](CO)C(=O)O)C(C)C)[C@@H](C)CC` [AT700] (Glutaryl-GTFISDYSIA[Nle]DKIK(C16 diacid)QQDFVEWLLAQKPSSGAPPPS-OH), the “cAMP antagonism % inhib” value on human GIP receptor [1] came out at 89%. In the case of `CCCC[C@H](NC(=O)C(C)(C)NC(=O)[C@@H](NC(=O)[C@H](CO)NC(=O)[C@H](Cc1ccc(O)cc1)NC(=O)[C@H](CC(=O)O)NC(=O)[C@H](CO)NC(=O)[C@@H](NC(=O)[C@H](Cc1ccccc1)NC(=O)[C@@H](NC(=O)CNC(=O)[C@@H](N)CCC(=O)O)[C@@H](C)O)[C@@H](C)CC)[C@@H](C)CC)C(=O)N[C@@H](CC(=O)O)C(=O)N[C@@H](CCCCN)C(=O)N[C@H](C(=O)N[C@@H](CCCCNC(=O)COCCOCCNC(=O)COCCOCCNC(=O)CC[C@H](NC(=O)CCCCCCCCCCCCCCCCC(=O)O)C(=O)O)C(=O)N[C@@H](CCC(N)=O)C(=O)N[C@@H](CCC(N)=O)C(=O)N[C@@H](CC(=O)O)C(=O)N[C@@H](Cc1ccccc1)C(=O)N[C@H](C(=O)N[C@@H](CCC(=O)O)C(=O)N[C@@H](Cc1c[nH]c2ccccc12)C(=O)N[C@@H](CC(C)C)C(=O)N[C@@H](CC(C)C)C(=O)N[C@@H](C)C(=O)N[C@@H](CCC(N)=O)C(=O)N[C@@H](CCCCN)C(=O)N1CCC[C@H]1C(=O)N[C@@H](CO)C(=O)N[C@@H](CO)C(=O)NCC(=O)N[C@@H](C)C(=O)N1CCC[C@H]1C(=O)N1CCC[C@H]1C(=O)N1CCC[C@H]1C(=O)N[C@@H](CO)C(=O)O)C(C)C)[C@@H](C)CC` [AT686] (H-EGTFISDYSI[Aib][Nle]DKIK([AEEA-AEEA-γGlu-C18 diacid])QQDFVEWLLAQKPSSGAPPPS-OH; N-terminus assumed), the “cAMP antagonism % inhib” value at human GIP receptor [1] is given as 82%. As for `CC[C@H](C)[C@H](NC(=O)[C@H](CO)NC(=O)[C@H](Cc1ccc(O)cc1)NC(=O)[C@H](CCC(=O)O)NC(=O)[C@H](CO)NC(=O)[C@@H](NC(=O)[C@H](Cc1ccccc1)NC(=O)[C@@H](NC(=O)CNC(=O)[C@@H](N)CCC(=O)O)[C@@H](C)O)[C@@H](C)CC)C(=O)N[C@@H](C)C(=O)N[C@@H](CCSC)C(=O)N[C@@H](CCC(=O)O)C(=O)N[C@@H](CCCCN)C(=O)N[C@H](C(=O)N[C@@H](CCCCNC(=O)CCCCCCCCCCCCCCC(=O)O)C(=O)N[C@@H](CCC(N)=O)C(=O)N[C@@H](CCC(N)=O)C(=O)N[C@@H](CCC(=O)O)C(=O)N[C@@H](Cc1ccccc1)C(=O)N[C@H](C(=O)N[C@@H](CCC(=O)O)C(=O)N[C@@H](Cc1c[nH]c2ccccc12)C(=O)N[C@@H](CC(C)C)C(=O)N[C@@H](CC(C)C)C(=O)N[C@@H](C)C(=O)N[C@@H](CCC(N)=O)C(=O)N[C@@H](CCCCN)C(=O)N1CCC[C@H]1C(=O)N[C@@H](CO)C(=O)N[C@@H](CO)C(=O)NCC(=O)N[C@@H](C)C(=O)N1CCC[C@H]1C(=O)N1CCC[C@H]1C(=O)N1CCC[C@H]1C(=O)N[C@@H](CO)C(=O)O)C(C)C)[C@@H](C)CC` [AT614] (H-EGTFISEYSIAMEKIK(C16 diacid)QQEFVEWLLAQKPSSGAPPPS-OH; N-terminus assumed), the “cAMP antagonism % inhib” value at human GIP receptor [1] worked out at 100%. Regarding `CC[C@H](C)[C@H](NC(=O)[C@H](CO)NC(=O)[C@H](Cc1ccc(O)cc1)NC(=O)[C@H](CC(=O)O)NC(=O)[C@H](CO)NC(=O)[C@@H](NC(=O)[C@H](Cc1ccccc1)NC(=O)[C@@H](NC(=O)CNC(=O)[C@@H](N)CCC(=O)O)[C@@H](C)O)[C@@H](C)CC)C(=O)N[C@@H](C)C(=O)N[C@@H](CCSC)C(=O)N[C@@H](CC(=O)O)C(=O)N[C@@H](CCCCN)C(=O)N[C@H](C(=O)N[C@@H](CCCCNC(=O)CCCCCCCCCCCCCCC(=O)O)C(=O)N[C@@H](CCC(N)=O)C(=O)N[C@@H](CCC(N)=O)C(=O)N[C@@H](CC(=O)O)C(=O)N[C@@H](Cc1ccccc1)C(=O)N[C@H](C(=O)N[C@@H](CCC(=O)O)C(=O)N[C@@H](Cc1c[nH]c2ccccc12)C(=O)N[C@@H](CC(C)C)C(=O)N[C@@H](CC(C)C)C(=O)N[C@@H](C)C(=O)N[C@@H](CCC(N)=O)C(=O)N[C@@H](C)C(=O)N1CCC[C@H]1C(=O)N[C@@H](CO)C(=O)N[C@@H](CO)C(=O)NCC(=O)N[C@@H](C)C(=O)N1CCC[C@H]1C(=O)N1CCC[C@H]1C(=O)N1CCC[C@H]1C(=O)N[C@@H](CO)C(=O)O)C(C)C)[C@@H](C)CC` [AT623] (H-EGTFISDYSIAMDKIK(C16 diacid)QQDFVEWLLAQAPSSGAPPPS-OH; N-terminus assumed), the “cAMP antagonism % inhib” value on human GIP receptor [1] was determined as 98%.

B1: AT702 (peptide)
peptide: Glutaryl-GTFISDYSIA[Nle]DKIK([AEEA-AEEA-γGlu-C18 diacid])QQDFVEWLLAQKPSSGAPPPS-OH
For the molecule B1, in the test with human GIP receptor [2], the “cAMP antagonism % inhib (CisBio assay)” value worked out at 85%; the “cAMP antagonism nM (IC50, CisBio assay)” value amounted to 3.55 nM; the “cAMP antagonism pIC50 (CisBio assay)” value was 8.5.

B2: AT696 (peptide)
peptide: EGTFISEYSI[Aib][Nle]EKIK([AEEA-AEEA-γGlu-C18 diacid])QQEFVEWLLAQKPSSGAPPPS-OH
modifications: N-terminus assumed
SMILES: CCCC[C@H](NC(=O)C(C)(C)NC(=O)[C@@H](NC(=O)[C@H](CO)NC(=O)[C@H](Cc1ccc(O)cc1)NC(=O)[C@H](CCC(=O)O)NC(=O)[C@H](CO)NC(=O)[C@@H](NC(=O)[C@H](Cc1ccccc1)NC(=O)[C@@H](NC(=O)CNC(=O)[C@@H](N)CCC(=O)O)[C@@H](C)O)[C@@H](C)CC)[C@@H](C)CC)C(=O)N[C@@H](CCC(=O)O)C(=O)N[C@@H](CCCCN)C(=O)N[C@H](C(=O)N[C@@H](CCCCNC(=O)COCCOCCNC(=O)COCCOCCNC(=O)CC[C@H](NC(=O)CCCCCCCCCCCCCCCCC(=O)O)C(=O)O)C(=O)N[C@@H](CCC(N)=O)C(=O)N[C@@H](CCC(N)=O)C(=O)N[C@@H](CCC(=O)O)C(=O)N[C@@H](Cc1ccccc1)C(=O)N[C@H](C(=O)N[C@@H](CCC(=O)O)C(=O)N[C@@H](Cc1c[nH]c2ccccc12)C(=O)N[C@@H](CC(C)C)C(=O)N[C@@H](CC(C)C)C(=O)N[C@@H](C)C(=O)N[C@@H](CCC(N)=O)C(=O)N[C@@H](CCCCN)C(=O)N1CCC[C@H]1C(=O)N[C@@H](CO)C(=O)N[C@@H](CO)C(=O)NCC(=O)N[C@@H](C)C(=O)N1CCC[C@H]1C(=O)N1CCC[C@H]1C(=O)N1CCC[C@H]1C(=O)N[C@@H](CO)C(=O)O)C(C)C)[C@@H](C)CC
As to B2, in the test with human GIP receptor [2], the “cAMP antagonism % inhib (CisBio assay)” value turned out to be 97%; the “cAMP antagonism nM (IC50, CisBio assay)” value amounted to 0.584 nM; the “cAMP antagonism pIC50 (CisBio assay)” value came to 9.2.

B3: AT700 (peptide)
peptide: Glutaryl-GTFISDYSIA[Nle]DKIK(C16 diacid)QQDFVEWLLAQKPSSGAPPPS-OH
With B3, in the test with human GIP receptor [2], the “cAMP antagonism % inhib (CisBio assay)” value was 89%; the “cAMP antagonism nM (IC50, CisBio assay)” value amounted to 0.708 nM; the “cAMP antagonism pIC50 (CisBio assay)” value came out at 9.2.
